Experimental data reported in article doi:10.1101/2020.07.09.196626.

Key:
[1] = biological target: V5 epitope-tagged soluble ZIKV E, covalently stabilised dimer carrying A264C (sE-cvD) (Zika virus (strain ArD158095)); test: non-reducing SDS-PAGE
[2] = biological target: ZIKV full-length E protein carrying A264C (covalent dimer), in virus-like particles (VLP-cvD) (Zika virus (strain PE243)); test: non-reducing SDS-PAGE with western blot

Row | Substance | stoichiometry N [1] | stoichiometry N [2]
1 | V5 epitope-tagged soluble ZIKV E, covalently stabilised dimer carrying A264C (sE-cvD) (domain or fragment) | 2 | –
2 | ZIKV full-length E protein carrying A264C (covalent dimer), in virus-like particles (VLP-cvD) (natural protein) | – | 2
